Biological target: T1, OX40 receptor on mouse CD4+ T-cells (mouse, UniProt P47741 20-272)
T1 sequence (looked up): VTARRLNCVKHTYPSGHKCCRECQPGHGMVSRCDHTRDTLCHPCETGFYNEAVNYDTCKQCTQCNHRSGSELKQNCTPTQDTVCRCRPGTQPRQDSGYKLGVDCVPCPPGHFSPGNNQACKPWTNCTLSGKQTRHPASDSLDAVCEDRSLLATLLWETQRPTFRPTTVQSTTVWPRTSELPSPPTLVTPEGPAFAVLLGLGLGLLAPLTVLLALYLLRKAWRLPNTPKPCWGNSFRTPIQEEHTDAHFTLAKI
Assay: cell-based or functional assay

- mouse IL-2 production by CD4+ T-cells (IL-2 ELISA), fold over mock-treated or non-translated mRNA control (about 6 ng/ml): ~2 fold
B1: murine OX40L polypeptide expressed from mOX40L_miR122 mRNA (SEQ ID NO: 66) on the surface of B16F10 cells (ligand)
chain: MEGEGVQPLDENLENGSRPRFKWKKTLRLVVSGIKGAGMLLCFIYVCLQLSSSPAKDPPIQRLRGAVTRCEDGQLFISSYKNEYQTMEVQNNSVVIKCDGLYIIYLKGSFFQEVKIDLHFREDHNPISIPMLNDGRRIVFTVVASLAFKDKVYLTVNAPDTLCEHLQINDGELIVVQLTPGYCAPEGSYHSTVNQVPL

From patent US20230359371A1 (MODERNATX, published 2023)
